B1: SZ51, murine anti-P-selectin monoclonal antibody (antibody, V domains shown)
VH: QVQLLESGPELKKPGETVKISCKASGYTFTNYGMNWVKQAPGKGLKWMGWINTYTGEPIYADDFKGRFAFSLETSASTAHLQINSLKNEDMATYFCARGRGGNAMDYWGQGTSVTVSS
VL: ELQMTQSPSSLSASVGDRVTISCSASQDISNYLNWYQQKPDGPVKLLIYYTTSNLHSGVPSRFSGSGSGTDYSLTISNLEPEDIATYYCQQYNKVPWTFGGGTKLEIKR
notes: Variable region DNA in GenBank gi:4099282 (heavy) and gi:4099284 (light); also called parental monoclonal antibody SZ51; anti-P-selectin mouse monoclonal antibody
B2: HuSZ51, chimeric mouse-human anti-P-selectin monoclonal antibody (antibody, human IgG1, V domains shown)
VH: B1 VH
VL: B1 VL

Legend:
[1] = target: T1, P-selectin on thrombin-activated human platelets (human, UniProt P16109 42-830); experiment: ELISA on plate-coated thrombin-activated human platelets
T1 construct: whole, on cells
T1 sequence (looked up): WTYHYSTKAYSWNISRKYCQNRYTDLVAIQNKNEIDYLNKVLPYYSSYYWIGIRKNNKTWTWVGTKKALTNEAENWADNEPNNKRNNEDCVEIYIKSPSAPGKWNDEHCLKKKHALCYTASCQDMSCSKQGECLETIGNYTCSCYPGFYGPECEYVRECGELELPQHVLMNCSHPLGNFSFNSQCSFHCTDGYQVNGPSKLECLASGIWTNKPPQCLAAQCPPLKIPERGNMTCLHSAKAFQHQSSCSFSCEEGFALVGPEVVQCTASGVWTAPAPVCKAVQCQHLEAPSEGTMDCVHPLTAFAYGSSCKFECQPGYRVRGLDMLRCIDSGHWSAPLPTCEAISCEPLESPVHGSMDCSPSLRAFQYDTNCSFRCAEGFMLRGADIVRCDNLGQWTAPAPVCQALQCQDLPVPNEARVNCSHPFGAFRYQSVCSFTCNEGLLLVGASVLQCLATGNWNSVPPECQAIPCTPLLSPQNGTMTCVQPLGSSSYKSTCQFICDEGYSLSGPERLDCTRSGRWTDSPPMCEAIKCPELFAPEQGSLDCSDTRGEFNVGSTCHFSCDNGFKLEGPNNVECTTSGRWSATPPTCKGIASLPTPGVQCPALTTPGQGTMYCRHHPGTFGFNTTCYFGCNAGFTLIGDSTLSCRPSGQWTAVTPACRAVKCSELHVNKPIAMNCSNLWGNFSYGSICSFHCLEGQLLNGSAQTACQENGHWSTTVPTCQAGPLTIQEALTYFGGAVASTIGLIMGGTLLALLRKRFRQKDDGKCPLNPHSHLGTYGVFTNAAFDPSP
Procedure: The ability of purified HuSZ51-DSPAalpha1 to bind specifically to human or dog thrombin-activated platelets in vitro was investigated by ELISA. 96-Well plates were coated with a 100 μl solution containing 1×10⁶ thrombin-activated human or dog platelets per well and incubated overnight at 4° C. The coated plates were washed once with washing solution (PBS, pH 7.4 plus 0.05% Tween-20), and then incubated with 200 μl blocking solution (5% milk prepared in PBS) per well at 37° C. for 2 hours. The blocked plates were washed 3 times with washing solution, and then incubated with 100 μl washing solution containing various amounts of HuSZ51-DSPAalpha1, SZ51, or human IgG1 for 1 hour at 37° C. The plates were washed 3 times with washing solution, and then incubated with peroxidase-conjugated protein L (Pierce) for 1 hour at 37° C. The plates were washed 4 times with washing solution, and then incubated with 100 μl of TMB/E substrate (ZYMED) for 5 minutes at room temperature. The perioxidase reactions were stopped by the addition of 100 μl 1 N HCl, and the plates were read for absorbance at 450 nm within 5 minutes.

[2] = target: T2, recombinant human P-selectin (R&D Systems) (human, UniProt P16109 42-771); experiment: recombinant soluble P-selectin (0-40 ng) after SDS-PAGE on nitrocellulose, detection with HRP goat anti-human Fc
T2 construct: extracellular domain; also called recombinant soluble P-selectin; recombinant P-selectin
T2 sequence (looked up): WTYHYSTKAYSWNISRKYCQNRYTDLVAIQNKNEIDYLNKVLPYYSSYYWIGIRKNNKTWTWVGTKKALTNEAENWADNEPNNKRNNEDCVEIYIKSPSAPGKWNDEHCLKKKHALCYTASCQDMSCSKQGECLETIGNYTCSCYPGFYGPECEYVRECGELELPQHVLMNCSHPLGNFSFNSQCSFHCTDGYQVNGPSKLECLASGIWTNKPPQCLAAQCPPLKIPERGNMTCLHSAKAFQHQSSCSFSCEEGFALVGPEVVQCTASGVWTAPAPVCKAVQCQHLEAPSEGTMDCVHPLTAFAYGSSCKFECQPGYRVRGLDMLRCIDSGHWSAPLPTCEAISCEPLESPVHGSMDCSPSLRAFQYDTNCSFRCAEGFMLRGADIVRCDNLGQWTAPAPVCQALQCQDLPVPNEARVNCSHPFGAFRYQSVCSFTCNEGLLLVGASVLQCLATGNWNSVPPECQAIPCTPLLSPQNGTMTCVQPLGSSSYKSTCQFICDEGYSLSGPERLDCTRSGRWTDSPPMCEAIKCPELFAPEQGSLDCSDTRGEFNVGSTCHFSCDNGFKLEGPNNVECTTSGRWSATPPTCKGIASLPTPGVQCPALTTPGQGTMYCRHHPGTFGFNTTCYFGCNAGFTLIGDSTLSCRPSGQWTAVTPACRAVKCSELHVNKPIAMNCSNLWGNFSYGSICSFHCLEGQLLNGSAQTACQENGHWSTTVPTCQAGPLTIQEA
Procedure: 1. Binding of HuSZ51-DSPAalpha1 to P-selectin on a nitrocellulose membrane. The indicated amounts of recombinant soluble P-selectin (R&D systems), 0, 5, 10, 20, or 40 ng, along with 10 ng of human IgG1, were separated on SDS-PAGE gels and then transferred onto nitrocellulose membranes. One membrane was incubated with HuSZ51, and the second was incubated with HuSZ51-DSPAalpha1. After washing, bound HuSZ51 or HuSZ51-DSPAalpha1 was detected by HRP-conjugated goat anti-human Fc. The intensity of human IgG1 lane, which is also detected by HRP-conjugated goat anti-human Fc was used as a normalization control.

Binder | binding result [1] | binding result [2]
B1 | binds | 
B2 |  | binds
